Assay [1] has as its target T1, recombinant human IL1RAP ECD (human, UniProt Q9NPH3 21-367).
T1 construct: His-tagged; also called hIL1RAP-ECD; rhuIL1RAP
T1 sequence: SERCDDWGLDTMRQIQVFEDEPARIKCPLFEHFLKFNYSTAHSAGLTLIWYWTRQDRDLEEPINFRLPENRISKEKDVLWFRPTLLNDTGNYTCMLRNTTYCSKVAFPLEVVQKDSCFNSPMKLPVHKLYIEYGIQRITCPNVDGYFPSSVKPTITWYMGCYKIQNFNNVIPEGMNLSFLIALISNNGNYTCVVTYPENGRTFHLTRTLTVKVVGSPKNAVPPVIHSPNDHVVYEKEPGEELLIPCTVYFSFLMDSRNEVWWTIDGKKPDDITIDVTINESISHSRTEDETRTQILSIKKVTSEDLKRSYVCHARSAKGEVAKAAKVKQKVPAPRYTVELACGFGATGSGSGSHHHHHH
Briefly: SPR. For orientation: Surface plasmon resonance follows binding to a sensor surface in real time, without labels.

The target of assay [2] is T1, recombinant human IL1RAP ECD. In words: SPR, summary.
Assay [3] addresses T2, recombinant cyno IL1RAP ECD (cynomolgus monkey, UniProt P59822 21-367 (rhesus entry)).
T2 construct: also called rcynoIL1RAP
T2 sequence: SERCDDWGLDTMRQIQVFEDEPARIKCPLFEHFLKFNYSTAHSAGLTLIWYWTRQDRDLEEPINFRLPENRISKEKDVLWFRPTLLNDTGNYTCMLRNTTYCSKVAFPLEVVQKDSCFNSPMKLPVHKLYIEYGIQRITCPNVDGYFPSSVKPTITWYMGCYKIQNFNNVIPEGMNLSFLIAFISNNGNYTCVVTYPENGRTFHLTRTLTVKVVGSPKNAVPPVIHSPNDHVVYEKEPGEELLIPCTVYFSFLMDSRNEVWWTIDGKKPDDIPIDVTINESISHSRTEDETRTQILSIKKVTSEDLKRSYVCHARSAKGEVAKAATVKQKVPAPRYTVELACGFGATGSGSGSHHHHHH
In words: SPR, summary.

Assay [4] deals with T2, recombinant cyno IL1RAP ECD. In words: SPR.
Assay [5] has as its target T1, recombinant human IL1RAP ECD. Briefly: SPR; human KD over cyno KD.
Assay [6] deals with T3, human IL1RAP on cells (endogenous) (human, UniProt Q9NPH3 21-570).
T3 sequence (looked up): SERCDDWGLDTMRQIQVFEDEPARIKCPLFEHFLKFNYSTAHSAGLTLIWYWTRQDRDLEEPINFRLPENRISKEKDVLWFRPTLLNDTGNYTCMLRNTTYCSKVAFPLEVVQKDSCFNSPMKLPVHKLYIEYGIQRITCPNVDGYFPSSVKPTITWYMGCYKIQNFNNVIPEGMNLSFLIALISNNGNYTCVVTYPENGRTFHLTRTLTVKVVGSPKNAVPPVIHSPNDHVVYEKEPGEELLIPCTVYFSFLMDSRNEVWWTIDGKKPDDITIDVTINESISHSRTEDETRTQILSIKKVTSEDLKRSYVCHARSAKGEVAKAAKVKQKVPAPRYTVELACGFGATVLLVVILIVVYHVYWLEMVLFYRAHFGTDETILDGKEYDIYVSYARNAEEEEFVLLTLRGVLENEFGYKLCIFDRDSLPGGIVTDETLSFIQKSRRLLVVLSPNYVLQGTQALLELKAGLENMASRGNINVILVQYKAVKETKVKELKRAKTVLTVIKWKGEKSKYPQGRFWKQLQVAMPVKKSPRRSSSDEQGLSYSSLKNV
Briefly: cell-based or functional assay.

The target of assay [7] is T1, recombinant human IL1RAP ECD. In words: SPR. The source holds these as a separate data set.
In assay [8] the target is T2, recombinant cyno IL1RAP ECD. In words: SPR. This is another data set of the same source.
The target of assay [9] is T1, recombinant human IL1RAP ECD. In words: SPR (ProteOn). The protocol:
The rates of IL1RAP ECD association and dissociation were measured for each variant. The biosensor surface was prepared by covalently coupling Goat anti-Human IgG (Fc) to the surface of a GLC chip (BioRad) using the manufacturer instructions for amine-coupling chemistry. […] The RU immobilized also included a goat anti-mouse Fc antibody that was added to capture other antibodies not included in the ones reported here. Since the mixture was 1:1 about 50% of these RU immobilized are expected to be goat anti-human Fc. The kinetic experiments were performed at 25° C. in running buffer (PBS pH 7.4, 0.005% P20, 3 mM EDTA). […] (1:3) serial dilutions of human IL1RAP ECD, starting at 400 nM were prepared in running buffer. […] The reference spots (Goat anti-Human IgG (Fc)-modified surface) containing no candidate captured were used as a reference surface. Capture of mAb was followed by a 3 minute injection (association phase) of antigen at 40 μL/min, followed by 10 minutes of buffer flow (dissociation phase). […] Data was processed on the instrument software. Double reference subtraction of the data was performed by subtracting the curves generated by buffer injection from the reference-subtracted curves for analyte injections. Kinetic analysis of the data was performed using 1:1 Langmuir binding model with group fit.

B1: IC3B1 (bispecific antibody, human IgG4 S228P, kappa, lambda, F234A L235A)
heavy 1: EVQLVESGGGLVQPGGSLKLSCAASGFTFNTYAMNWVRQASGKGLEWVGRIRSKYNAYATYYAASVKGRFTISRDDSKNTAYLQMNSLKTEDTAVYYCTRHGNFGNSYVSWFAYWGQGTLVTVSSASTKGPSVFPLAPCSRSTSESTAALGCLVKDYFPEPVTVSWNSGALTSGVHTFPAVLQSSGLYSLSSVVTVPSSSLGTKTYTCNVDHKPSNTKVDKRVESKYGPPCPPCPAPEAAGGPSVFLFPPKPKDTLMISRTPEVTCVVVDVSQEDPEVQFNWYVDGVEVHNAKTKPREEQFNSTYRVVSVLTVLHQDWLNGKEYKCKVSNKGLPSSIEKTISKAKGQPREPQVYTLPPSQEEMTKNQVSLTCLVKGFYPSDIAVEWESNGQPENNYKTTPPVLDSDGSFLLYSKLTVDKSRWQEGNVFSCSVMHEALHNHYTQKSLSLSLGK
light 1: QAVVTQEPSLTVSPGGTVTLTCRSSTGAVTTSNYANWVQQKPGQAPRGLIGGTNKRAPGTPARFSGSLLGGKAALTLSGAQPEDEAEYYCALWYSNLWVFGGGTKLTVLGQPKAAPSVTLFPPSSEELQANKATLVCLISDFYPGAVTVAWKADSSPVKAGVETTTPSKQSNNKYAASSYLSLTPEQWKSHRSYSCQVTHEGSTVEKTVAPTECS
heavy 2: not shown
light 2: EIVLTQSPGTLSLSPGERATLSCRASQSISNDLNWYQQKPGKAPKLLIYYASSLQSGVPSRFSGSGSGTDFTLTINSLQPEDFATYYCQQSFTAPLTFGQGTKVEIKRTVAAPSVFIFPPSDEQLKSGTASVVCLLNNFYPREAKVQWKVDNALQSGNSQESVTEQDSKDSTYSLSSTLTLSKADYEKHKVYACEVTHQGLSSPVTKSFNRGEC
notes: IgG4-PAA, Fab arm exchange; also called IAPB47 x CD3B220
For orientation: Kd means a measure of binding affinity in units of concentration. In general, koff refers to the first-order rate constant of dissociation. The term kon denotes a measure of how fast the partners come together. For B1, the dissociation constant Kd in [1] is 1.09 nM; in assay [2], 1.09 nM; in assay [3] it was 0.212 nM; in assay [4], 0.212 nM; in assay [7], 1.09 nM; in [8], 0.212 nM. For the same molecule, the off-rate constant (koff) in [1] is 0.000759 s⁻¹; in assay [4], 0.000236 s⁻¹. Also, the values for the kon in assay [1] and in assay [4] were 697000 M⁻¹ s⁻¹ and 1.11e+06 M⁻¹ s⁻¹, respectively. In addition, the “Hu/Cyno KD Ratio” value in [5] turned out to be 5.1. Moreover, the “EC50, T-cell mediated cytotoxicity” value in assay [6] worked out at 0.049 nM.

B2: IC3B4 (bispecific antibody, human IgG4 S228P, kappa, lambda, F234A L235A)
heavy 1: EVQLVESGGGLVQPGGSLKLSCAASGFTFNTYAMNWVRQASGKGLEWVGRIRSKYNAYATYYAASVKGRFTISRDDSKNTAYLQMNSLKTEDTAVYYCTRHGNFGNSYVSWFAYWGQGTLVTVSSASTKGPSVFPLAPCSRSTSESTAALGCLVKDYFPEPVTVSWNSGALTSGVHTFPAVLQSSGLYSLSSVVTVPSSSLGTKTYTCNVDHKPSNTKVDKRVESKYGPPCPPCPAPEAAGGPSVFLFPPKPKDTLMISRTPEVTCVVVDVSQEDPEVQFNWYVDGVEVHNAKTKPREEQFNSTYRVVSVLTVLHQDWLNGKEYKCKVSNKGLPSSIEKTISKAKGQPREPQVYTLPPSQEEMTKNQVSLTCLVKGFYPSDIAVEWESNGQPENNYKTTPPVLDSDGSFLLYSKLTVDKSRWQEGNVFSCSVMHEALHNHYTQKSLSLSLGK
light 1: QAVVTQEPSLTVSPGGTVTLTCRSSTGAVTTSNYANWVQQKPGQAPRGLIGGTNKRAPGTPARFSGSLLGGKAALTLSGAQPEDEAEYYCALWYSNLWVFGGGTKLTVLGQPKAAPSVTLFPPSSEELQANKATLVCLISDFYPGAVTVAWKADSSPVKAGVETTTPSKQSNNKYAASSYLSLTPEQWKSHRSYSCQVTHEGSTVEKTVAPTECS
heavy 2: not shown
light 2: not shown
notes: IgG4-PAA, Fab arm exchange; also called IAPB61 x CD3B220
B2: the Kd in assay [1] is 11.2 nM; in assay [2], 11.2 nM; in assay [3], 10.2 nM; in assay [4], 10.2 nM; in [7], 11.2 nM; in [8], 10.2 nM. In addition, the values for the koff in assay [1] and in [4] were 0.0129 s⁻¹ and 0.0148 s⁻¹, respectively. In addition, the kon was found to be 1.15e+06 M⁻¹ s⁻¹ in assay [1] and 1.46e+06 M⁻¹ s⁻¹ in assay [4]. The “Hu/Cyno KD Ratio” value in [5] worked out at 1.1.

B3: IC3B9 (bispecific antibody, human IgG4 S228P, kappa, lambda, F234A L235A)
heavy 1: EVQLVESGGGLVQPGGSLKLSCAASGFTFNTYAMNWVRQASGKGLEWVGRIRSKYNAYATYYAASVKGRFTISRDDSKNTAYLQMNSLKTEDTAVYYCTRHGNFGNSYVSWFAYWGQGTLVTVSSASTKGPSVFPLAPCSRSTSESTAALGCLVKDYFPEPVTVSWNSGALTSGVHTFPAVLQSSGLYSLSSVVTVPSSSLGTKTYTCNVDHKPSNTKVDKRVESKYGPPCPPCPAPEAAGGPSVFLFPPKPKDTLMISRTPEVTCVVVDVSQEDPEVQFNWYVDGVEVHNAKTKPREEQFNSTYRVVSVLTVLHQDWLNGKEYKCKVSNKGLPSSIEKTISKAKGQPREPQVYTLPPSQEEMTKNQVSLTCLVKGFYPSDIAVEWESNGQPENNYKTTPPVLDSDGSFLLYSKLTVDKSRWQEGNVFSCSVMHEALHNHYTQKSLSLSLGK
light 1: QAVVTQEPSLTVSPGGTVTLTCRSSTGAVTTSNYANWVQQKPGQAPRGLIGGTNKRAPGTPARFSGSLLGGKAALTLSGAQPEDEAEYYCALWYSNLWVFGGGTKLTVLGQPKAAPSVTLFPPSSEELQANKATLVCLISDFYPGAVTVAWKADSSPVKAGVETTTPSKQSNNKYAASSYLSLTPEQWKSHRSYSCQVTHEGSTVEKTVAPTECS
heavy 2: not shown
light 2: not shown
notes: IgG4-PAA, Fab arm exchange; also called IAPB25 x CD3B220
With B3, the Kd came to 29.7 nM in assay [1]; 29.7 nM in [2]; 27.8 nM in [3]; 27.8 nM in [4]; 29.7 nM in [7]; 27.8 nM in assay [8]. For the same molecule, the koff was determined as 0.0547 s⁻¹ in assay [1] and 0.053 s⁻¹ in assay [4]. Also, the kon was 1.84e+06 M⁻¹ s⁻¹ in assay [1] and 1.91e+06 M⁻¹ s⁻¹ in [4]. Further, in assay [5], the “Hu/Cyno KD Ratio” value is 1.1.

B4: IAPB57, 5G08 (hybridoma mAb, unpurified) (antibody, V domains shown)
VH: QLQLQESGPGLVKPSETLSLTCTVSGGSISSSTYYWGWIRQPPGKGLEWIGSIYFTGSTDYNPSLKSRVSISVDTSKNQFSLKLSSVTAADTAVYYCAKEDDSSGYYSFDYWGQGNLVTVSS
VL: DIQLTQSPSFLSASVGDRVTITCRASQGISSYLAWYQQKPGKAPKLLIYAASTLQSGVPSRFSGSGSGTEFTLTISSLQPEDFATYYCQQVNSYPLTFGGGTKVEIK
notes: OmniRat hybridoma product (rat constant region)
Regarding B4, in [9], the Kd stood at 0.16 nM, the koff was determined as 0.000129 s⁻¹ and the kon worked out at 807000 M⁻¹ s⁻¹.

B5: IAPB55, 22A09 (hybridoma mAb, unpurified) (antibody, V domains shown)
VH: QLQLQESGPGLVKPSETLSLTCTVSGVSISSSTYYWGWLRQPPGMGLEWTGSIYFTGNTYYNPSLKSRVTISVDTSRNQFSLKLSSVTAADTAVYYCGSLFGDYGYFDYWGQGTLVTVSS
VL: EIVMTQSPATLSVSPGERATLSCRASQFISSNLAWYQQKPGQAPRLLIYGASTRATGIPARFSGSGSGTDFTLTISSLQSEDFAVYYCQQYNNWPFTFGPGTKVDIK
notes: as for B4
Regarding B5, in [9], the Kd was determined as 1.64 nM, the off-rate constant (koff) is 0.000747 s⁻¹ and the kon came to 454000 M⁻¹ s⁻¹.

B6: IAPB61, 25D12 (hybridoma mAb, unpurified) (antibody, V domains shown)
VH: QLQLQESGPGLVKPSETLSLTCTVSGVSISSSTYYWGWLRQPPGMGLEWTGSIYFTGNTYYNPSLKSRVTISVDTSRNQFSLKLSSVTAADTAVYYCGSLFGDYGYFDYWGQGTLVTVSS
VL: EIVMTQSPATLSVPPGERATLSCRASQFISSNLAWYQQKPGQAPRLLIYGASTRATGIPARFSGSGSGTDFTLTISSLQSEDFAVYYCQQYNNWPSTFGPGTKVDIK
notes: as for B4
With B6, in assay [9], the Kd was 17.5 nM, the koff came to 0.0142 s⁻¹ and the kon came out at 810000 M⁻¹ s⁻¹.

The record behind these values is patent US20190270826A1 (Janssen / Centocor, published 2019).
